Here are results for two molecules from patent US20170306037A1 (Novartis, published 2017).

Assay [1] addresses T1, DcR3 (human, UniProt O95407).
T1 sequence (receptor, looked up): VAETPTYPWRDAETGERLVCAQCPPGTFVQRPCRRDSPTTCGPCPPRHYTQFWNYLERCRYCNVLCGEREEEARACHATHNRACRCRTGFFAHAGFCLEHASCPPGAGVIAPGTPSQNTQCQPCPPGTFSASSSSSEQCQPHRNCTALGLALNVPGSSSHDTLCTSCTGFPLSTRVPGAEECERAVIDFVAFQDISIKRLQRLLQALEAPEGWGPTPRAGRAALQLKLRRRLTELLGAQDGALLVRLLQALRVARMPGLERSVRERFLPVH
Put plainly: specificity ELISA, bacterial lysate on HisGrab nickel plate. As for the experimental part:
(§1) For the specificity ELISA, a crude cell lysate was made from bacteria expressing members of the TNFRSF family. To prevent nonspecific binding to the plate 50 μL of 5% BSA was added per mL of bacterial lysate. […] The plate was then rinsed three times with PBST, then MAB was diluted to 0.5 μg/mL in 10% FBS in PBS and 100 μL was added to each well. The plate was incubated for 1 hour at room temperature and then rinsed three times with PBST. Anti-human kappa antibody (Sigma #A7164) conjugated to HRP was diluted 1:5000 in 1:1 PBST: 10% FBS in PBS and 100 μL added to each well. The plate was incubated for 1 hour at room temperature, and then washed three times with PBST. 100 μL of SureBlue TMB substrate was added to each well and the plate was incubated for about 10 min at room temperature before stopping the reaction with 100 μL /well of 2N H₂SO₄.
Background: In an ELISA, binding on a coated surface is turned into a signal by an enzyme label.

Assay [2] addresses CD40 (human, UniProt P25942). The assay is described as above. The procedure: as §1

Sequence of CD40 (P25942 21-193 limits assumed): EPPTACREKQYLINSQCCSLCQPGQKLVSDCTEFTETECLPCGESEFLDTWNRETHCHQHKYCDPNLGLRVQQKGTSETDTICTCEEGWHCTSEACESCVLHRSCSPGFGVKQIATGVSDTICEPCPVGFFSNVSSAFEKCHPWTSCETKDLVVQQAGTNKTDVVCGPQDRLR

B1: MAB4 (IgG1 kappa) (antibody, V domains shown)
VH: EVQLVESGGGLVQSGGSLRLSCAASGFSLSSYGVDWVRQAPGKGLEWVGVIWGGGGTYYASSLMGRFTISRDNSKNTLYLQMNSLRAEDTAVYYCAKHAYGHDGGFAMDYWGQGTLVTVSS
VL: EIVMTQSPATLSVSPGERATLSCRASESVSSNVAWYQQRPGQAPRLLIYGASNRATGIPARFSGSGSGTDFTLTISRLEPEDFAVYYCGQSYSYPFTFGQGTKLEIKR
Take B1: the binding result in assay [1] and in assay [2] was “no binding (tested: not on the sheet; paragraph 335: 0.5 µg/mL)” in each case.

B2: MAB5 (IgG1 kappa) (antibody, V domains shown)
VH: EVQLVESGGGLVQSGGSLRLSCAASGFSLSSYGVDWVRQAPGKGLEWLGVIWGGGGTYYTSSLMGRFTISRDNSKNTLYLQMNSLRAEDTAVYYCAKHAYGHDGGFAMDYWGQGTLVTVSS
VL: EIVMTQSPATLSVSPGERATLSCRASESVSSNVAWYQQRPGQAPRLLIYGASNRATGIPARFSGSGSGTDFTLTISRLEPEDFAVYYCGQSYSYPFTFGQGTKLEIKR
notes: also called MABS (misprint of MAB5)
Take B2: the binding result in assay [1] and in assay [2] was “no binding (tested: not on the sheet; paragraph 335: 0.5 µg/mL)” each time.
